The values below come from patent US20250188166A1 (BRIGHT PEAK THERAPEUTICS, published 2025).

Read-outs that look alike come from different tables or passages of the source.

Assay [1] concerns the target T1, recombinant biotinylated human FcRn (human, UniProt P55899 24-297; P61769 21-119, limits assumed, biotinylated).
T1 construct: Kit reagent; also called human neonatal Fc receptor
The experiment in a line: AlphaLISA competition at pH 6; competitor human IgG acceptor beads. As to the method: (§1) The interaction of the unmodified and of conjugated anti-PD1 antibodies with the human neonatal Fc receptor (FcRn) at pH 6 was measured using the AlphaLISA® Human FcRn Binding Kit (AL3095C) from Perkin Elmer (Schwerzenbach, Switzerland).
(§2) After 90 min at 23° C. in the dark, AlphaLISA® signal was measured on an EnSpire plate reader (Excitation at 680 nm, Emission at 615 nm) from Perkin Elmer (Schwerzenbach, Switzerland).

Assay [2] deals with T1, recombinant biotinylated human FcRn. As to the kind of experiment: AlphaLISA competition at pH 6: test antibody titrated against human IgG acceptor beads for biotinylated human FcRn on streptavidin donor beads; normalized signal. On the technique in general: In Alpha technology, singlet oxygen from a donor bead excites a nearby acceptor bead.
The target of assay [3] is T2, recombinant Human Fc gamma RI/CD64 Protein (human, UniProt P12314 16-288).
T2 construct: also called FcγRI/(CD64); human Fc gamma receptor I
As to the kind of experiment: ELISA: antibody coated (2.5 µg/ml), His-tagged recombinant human FcγRI/CD64 titrated (x-axis), anti-His-HRP/TMB, 450 nm. As to the method: (§3) The interaction of the unmodified and of conjugated antibodies with human Fc gamma receptors I (FcγRI/CD64), with human Fc gamma receptors IIa (FcγRIIa/CD32a), with inhibitory human Fc gamma receptors IIb (FcγRIIb/CD32b), and with human Fc gamma receptors III FcγRIIIa/CD16 were measured by ELISA.
Briefly, Corning high-binding half-area plates (Fisher Scientific, Reinach, Switzerland) were coated overnight at 4° C. with 25 ul of unmodified and of conjugated anti-PD1 antibodies at 2.5 μg/ml in PBS. Plates were then washed four times with 100 ul of PBS-0.02% Tween20. Plates surfaces were blocked with 25 ul of PBS-0.02% Tween20-1% BSA at 37° C. during 1h. Plates were then washed four times with 100 ul of PBS-0.02% Tween20. Then twenty-five microliters of either recombinant Human Fc gamma RI/CD64 Protein (R&D systems, 1257-FC-050, CF), recombinant Human Fc gamma RIIA/CD32a (H167) Protein (R&D systems, 9595-CD-050, CF), recombinant Human Fc gamma RIIB/CD32b Avi-tag Protein (R&D systems, AVI1875-050, CF), or recombinant Human Fc gamma RIIIA/CD16a Protein (R&D systems, 4325-FC-050; CF) were added in five-fold serial dilutions ranging from 1000 nM to 0.001 nM into PBS-0.02% Tween20-0.1% BSA and incubated at 37° C. during 2h. […] ELISA signal was then measured at 450 nm on an EnSpire plate reader from Perkin Elmer (Schwerzenbach, Switzerland).
On the technique in general: In an ELISA, binding on a coated surface is turned into a signal by an enzyme label.

Assay [4] deals with T3, recombinant Human Fc gamma RIIB/CD32b Avi-tag Protein (human, UniProt P31994 46-217).
T3 construct: also called FcγRIIb (CD32b)
T3 sequence (looked up): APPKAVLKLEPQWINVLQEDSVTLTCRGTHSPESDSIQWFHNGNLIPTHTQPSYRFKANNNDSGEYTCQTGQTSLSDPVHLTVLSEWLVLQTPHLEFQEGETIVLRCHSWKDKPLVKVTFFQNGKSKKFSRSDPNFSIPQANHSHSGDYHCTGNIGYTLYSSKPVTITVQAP
As to the kind of experiment: ELISA; antibody coated, His-tagged receptor titrated. As to the method: as §3
(§4) Briefly, Corning high-binding half-area plates (Fisher Scientific, Reinach, Switzerland) were coated overnight at 4° C. with 25 ul of unmodified and of conjugated anti-PD1 antibodies at 2.5 μg/ml in PBS. Plates were then washed four times with 100 ul of PBS-0.02% Tween20. Plates surfaces were blocked with 25 ul of PBS-0.02% Tween20-1% BSA at 37° C. during 1h. Plates were then washed four times with 100 ul of PBS-0.02% Tween20. Then twenty-five microliters of either recombinant Human Fc gamma RI/CD64 Protein (R&D systems, 1257-FC-050, CF), recombinant Human Fc gamma RIIA/CD32a (H167) Protein (R&D systems, 9595-CD-050, CF), recombinant Human Fc gamma RIIB/CD32b Avi-tag Protein (R&D systems, AVI1875-050, CF), or recombinant Human Fc gamma RIIIA/CD16a Protein (R&D systems, 4325-FC-050; CF) were added in five-fold serial dilutions ranging from 1000 nM to 0.001 nM into PBS-0.02% Tween20-0.1% BSA and incubated at 37° C. during 2h. Plates were then washed four times with 100 ul of PBS-0.02% Tween20. Twenty-five microliters of a 1/500 HRP-anti-His antibody in PBS-0.02% Tween20-0.1% BSA (R&D systems, anti-HIS-HRP Ab, #MAB050H) were added to each well and plates were incubated at Room Temperature during 1h. Plates were then washed four times with 100 ul of PBS-0.02% Tween20. Fifty microliters of TMB substrate reagent (#CL07, Merck, Buchs, Switzerland) were added to each well and incubated at 37° C. during 5 min. After 5 min at 37° C., Horseradish peroxidase reaction was stopped by adding 50 ul/well of 0.5M H2SO₄ stop solution. ELISA signal was then measured at 450 nm on an EnSpire plate reader from Perkin Elmer (Schwerzenbach, Switzerland).

For assay [5], the target named is T4, recombinant Human Fc gamma RIIIA/CD16a Protein (human, UniProt P08637 17-208, limits assumed).
T4 construct: also called FcγRIIIa (CD16)
The assay is described as above. The protocol:
as §3, §4

For assay [6], the target named is T5, recombinant Human Fc gamma RIIA/CD32a (H167) Protein (human, UniProt P12318 36-218, limits assumed).
T5 construct: also called FcγRIIa (CD32a)
T5 sequence (looked up): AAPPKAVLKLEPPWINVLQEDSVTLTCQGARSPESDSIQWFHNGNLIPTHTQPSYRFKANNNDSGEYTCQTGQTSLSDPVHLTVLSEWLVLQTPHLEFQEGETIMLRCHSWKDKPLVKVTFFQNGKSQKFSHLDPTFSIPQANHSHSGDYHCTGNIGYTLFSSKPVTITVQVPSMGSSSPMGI
The description is as above. The protocol:
as §3, §4

Assay [7] deals with T2, recombinant Human Fc gamma RI/CD64 …. The assay is described as above. As to the method:
as §3, §4

For assay [8], the target named is T1, recombinant biotinylated human FcRn. The experiment in a line: AlphaLISA competition at pH 6: test antibody titrated against human IgG acceptor beads for biotinylated human FcRn on streptavidin donor beads; loss of signal. As to the method:
as §1, §2

In assay [9] the target is human PD-1 on Jurkat T cells (human, UniProt Q15116 25-288). The experiment in a line: cell-based or functional assay.
The target in assay [10] is T6, Biotinylated Recombinant Human PD-1/CD279-Fc Chimera (human, UniProt Q15116 25-167, biotinylated).
T6 construct: Bought (Biolegend #789406); also called recombinant biotinylated human PD-1
The experiment in a line: ELISA: antibody coated on the plate (5 µg/ml), biotinylated human PD-1-Fc titrated (x-axis, Concentration (nM)), streptavidin-HRP/TMB, 450 nm.

For assay [11], the target named is T1, recombinant biotinylated human FcRn. As to the kind of experiment: AlphaLISA competition at pH 6; competitor human IgG acceptor beads. The protocol:
as §1, §2
This is another data set of the same source.

B1: LZM-009 (antibody, human IgG4 S228P, kappa)
heavy: not shown
light: EIVLTQSPATLSLSPGERATISCRASKGVSTSGYSYLHWYQQKPGQAPRLLIYLASYLESGVPARFSGSGSGTDFTLTISSLEPEDFATYYCQHSRELPLTFGTGTKVEIKRTVAAPSVFIFPPSDEQLKSGTASVVCLLNNFYPREAKVQWKVDNALQSGNSQESVTEQDSKDSTYSLSSTLTLSKADYEKHKVYACEVTHQGLSSPVTKSFNRGEC
notes: IgG4 anti-PD-1 antibody; also called CMP2000
With B1, the dissociation constant (Kd) in [1] worked out at 6 nM; in assay [4], 2630 nM; in assay [5] it was 1710 nM; in [6] it was 1350 nM; in [7], 0.315 nM; in [11], 6 nM. The “IC50 (read off the curve)” value in assay [2] and in assay [8] was roughly 5 nM each time. For the same molecule, the results for the “EC50 (read off the curve)” value in assay [3], in assay [9] and in [10] were roughly 0.2 nM, roughly 2 nM and roughly 0.03 nM, respectively.

As usually defined, the Kd is the equilibrium constant for the complex coming apart. By EC50 (read off the curve) is commonly meant the concentration at which the effect is half-maximal.
